Measured values taken from US20020082414A1.

Legend:
[1] = biological target: human ETB-receptor (ET-receptor derived from pHETBR31 and pHETBR34) (human) (UniProt P24530); experiment: displacement of 125I-ET-1 from COS-7 cells expressing the ETB-receptor
[2] = biological target: human ETA-receptor (ET-receptor derived from phETIR) (human) (UniProt P25101); experiment: displacement of 50 pM 125I-ET-1 from COS-7 cells expressing the ETA-receptor
Sequence of human ETA-receptor (ET-receptor derived from phETIR) (human) (P25101 21-427 limits assumed, form in doubt): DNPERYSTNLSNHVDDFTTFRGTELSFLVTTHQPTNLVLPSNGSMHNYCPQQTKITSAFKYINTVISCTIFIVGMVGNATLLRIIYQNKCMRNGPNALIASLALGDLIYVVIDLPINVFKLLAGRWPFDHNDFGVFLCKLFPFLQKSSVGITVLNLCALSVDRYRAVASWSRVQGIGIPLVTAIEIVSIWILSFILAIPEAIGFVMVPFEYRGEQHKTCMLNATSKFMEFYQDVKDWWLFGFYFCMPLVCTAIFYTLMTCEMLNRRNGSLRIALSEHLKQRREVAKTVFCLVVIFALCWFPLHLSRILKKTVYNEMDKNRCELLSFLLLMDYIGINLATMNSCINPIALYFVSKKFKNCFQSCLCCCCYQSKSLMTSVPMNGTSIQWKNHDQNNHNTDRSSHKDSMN

Sequence of human ETB-receptor (ET-receptor derived from pHETBR31 and pHETBR34) (human) (P24530 27-442 limits assumed, form in doubt): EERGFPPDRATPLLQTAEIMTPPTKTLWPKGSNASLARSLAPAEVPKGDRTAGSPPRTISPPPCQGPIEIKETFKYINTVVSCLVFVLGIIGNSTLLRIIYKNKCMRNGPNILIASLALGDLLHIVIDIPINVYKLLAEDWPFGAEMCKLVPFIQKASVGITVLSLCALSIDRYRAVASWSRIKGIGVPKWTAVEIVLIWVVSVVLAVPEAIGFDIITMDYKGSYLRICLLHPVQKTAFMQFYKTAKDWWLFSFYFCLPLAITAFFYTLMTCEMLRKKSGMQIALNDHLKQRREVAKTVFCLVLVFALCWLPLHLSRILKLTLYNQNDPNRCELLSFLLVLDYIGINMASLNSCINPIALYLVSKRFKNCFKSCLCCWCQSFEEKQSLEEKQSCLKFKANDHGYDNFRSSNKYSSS

Substance | IC50 [1] [nM] | IC50 [2] [nM]
Endothelin 2 (from UniProt P20800 49-69) (peptide) | 1 | 6.1
Endothelin 3 (from UniProt P14138 97-117) (peptide) | 1 | 
